Test results as given in patent US20140357543A1.

target: T1, alcalase (trade name "Alcalase 2.5L", Novozymes) (UniProt P00780); assay: cell-based or functional assay
T1 sequence (looked up): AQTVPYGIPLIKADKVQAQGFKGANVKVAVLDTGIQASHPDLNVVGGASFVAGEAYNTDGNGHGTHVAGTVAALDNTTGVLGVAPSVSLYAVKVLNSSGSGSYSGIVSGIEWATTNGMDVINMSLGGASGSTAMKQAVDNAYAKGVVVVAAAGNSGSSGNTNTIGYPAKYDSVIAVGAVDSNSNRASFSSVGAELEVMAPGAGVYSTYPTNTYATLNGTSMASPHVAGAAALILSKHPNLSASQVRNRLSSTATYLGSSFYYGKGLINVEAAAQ

Binder	Protease activity upon dilution (%) immediately after preparation [%]	Remaining activity (%) immediately after preparation [%]
proteinaceous protease inhibitor of SEQ ID NO:2 (protein) TDTGDHHNQKTDWPELVGKSVEEAKKVILQDKSEAQIVVLPVGTIVTMEYRIDRVRLFVDSLDKIAQVPRVG	100	10
proteinaceous protease inhibitor of SEQ ID NO:7 (protein) TDTGDHHNQKTEWPELVGKSVEEAKKVILQDKSEAQIVVLPVGTIVTAEYRIDRVRLFVDSLDKIAQVPRVG	86	25
proteinaceous protease inhibitor of SEQ ID NO:8 (protein) TDTGDHHNQKTEWPELVGKSVEEAKKVILQDKSEAQIVVLPVGTIVTGEYRIDRVRLFVDSLDKIAQVPRVG	85	23
proteinaceous protease inhibitor of SEQ ID NO:9 (protein) TDTGDHHNQKTEWPELVGKSVEEAKKVILQDKSEAQIVVLPVGTIVTMEARIDRVRLFVDSLDKIAQVPRVG	85	18
proteinaceous protease inhibitor of SEQ ID NO:10 (protein) TDTGDHHNQKTEWPELVGKSVEEAKKVILQDKSEAQIVVLPVGTIVTMELRIDRVRLFVDSLDKIAQVPRVG	90	9
proteinaceous protease inhibitor of SEQ ID NO:11 (protein) TDTGDHHNQKTEWPELVGKSVEEAKKVILQDKSEAQIVVLPVGTIVTMEFRIDRVRLFVDSLDKIAQVPRVG	90	8
proteinaceous protease inhibitor of SEQ ID NO:12 (protein) TDTGDHHNQKTEWPELVGKSVEEAKKVILQDKSEAQIVVLPVGTIVTMEYAIDRVRLFVDSLDKIAQVPRVG	20	2
proteinaceous protease inhibitor of SEQ ID NO:13 (protein) TDTGDHHNQKTEWPELVGKSVEEAKKVILQDKSEAQIVVLPVGTIVTMEYKIDRVRLFVDSLDKIAQVPRVG	25	4
proteinaceous protease inhibitor of SEQ ID NO:14 (protein) TDTGDHHNQKTEWPELVGKSVEEAKKVILQDKSEAQIVVLPVGTIVTMEYHIDRVRLFVDSLDKIAQVPRVG	85	5
proteinaceous protease inhibitor of SEQ ID NO:15 (protein) TDTGDHHNQKTEWPELVGKSVEEAKKVILQDKSEAQIVVLPVGTIVTMEYRADRVRLFVDSLDKIAQVPRVG	80	3
proteinaceous protease inhibitor of SEQ ID NO:16 (protein) TDTGDHHNQKTEWPELVGKSVEEAKKVILQDKSEAQIVVLPVGTIVTMEYRVDRVRLFVDSLDKIAQVPRVG	95	9
proteinaceous protease inhibitor of SEQ ID NO:17 (protein) TDTGDHHNQKTEWPELVGKSVEEAKKVILQDKSEAQIVVLPVGTIVTMEYRIERVRLFVDSLDKIAQVPRVG	95	9
proteinaceous protease inhibitor of SEQ ID NO:3 (protein) TDTGDHHNQKTAWPELVGKSVEEAKKVILQDKSEAQIVVLPVGTIVTMEYRIDRVRLFVDSLDKIAQVPRVG	89	7
proteinaceous protease inhibitor of SEQ ID NO:18 (protein) TDTGDHHNQKTEWPELVGKSVEEAKKVILQDKSEAQIVVLPVGTIVTMEYRIARVRLFVDSLDKIAQVPRVG	85	3
proteinaceous protease inhibitor of SEQ ID NO:19 (protein) TDTGDHHNQKTEWPELVGKSVEEAKKVILQDKSEAQIVVLPVGTIVTMEYRIDRVRLFVDSLDKIAQVPAVG	85	2
proteinaceous protease inhibitor of SEQ ID NO:20 (protein) TDTGDHHNQKTEWPELVGKSVEEAKKVILQDKSEAQIVVLPVGTIVTMEYRIDRVRLFVDSLDKIAQVPGVG	100	10
proteinaceous protease inhibitor of SEQ ID NO:21 (protein) TDTGDHHNQKTEWPELVGKSVEEAKKVILQDKSEAQIVVLPVGTIVTMEYRIDRVRLFVDSLDKIAQVPKVG	100	13

Binder	Protease activity upon dilution (%) immediately after preparation [%]	Remaining activity (%) immediately after preparation [%]
proteinaceous protease inhibitor of SEQ ID NO:22 (protein) TDTGDHHNQKTEWPELVGKSVEEAKKVILQDKSEAQIAVLPVGTIVTMEYAADRVRLFVDSLDKIAQVPRVG	82	1
proteinaceous protease inhibitor of SEQ ID NO:23 (protein) TDTGDHHNQKTEWPELVGKSVEEAKKVILQDKSEAQIAVLPVGTIVTMEYRAARVRLFVDSLDKIAQVPRVG	82	1
proteinaceous protease inhibitor of SEQ ID NO:24 (protein) TDTGDHHNQKTEWPELVGKSVEEAKKVILQDKSEAQIVVLPVGTIVTGEYRIDRVRLFVDSLDKIAQVPAVG	82	20
proteinaceous protease inhibitor of SEQ ID NO:25 (protein) TDTGDHHNQKTEWPELVGKSVEEAKKVILQDKSEAQIAVLPVGTIVTMEYRIDRVRLFVDSLDKIAQVPAVG	80	1
proteinaceous protease inhibitor of SEQ ID NO:26 (protein) TDTGDHHNQKTDWPELVGKSVEEAPKVILQDKSEAPIAVLPVGTLVTAEAAAARVRLFVDSLDKIAQVPAVG	85	19
proteinaceous protease inhibitor of SEQ ID NO:27 (protein) TDTGDHHNQKTKWPELVGKSVEEAKKVILQDKSEAQIVVLPVGTIVTMEYRIDRVRLFVDSLDKIAQVPRVG	98	16
proteinaceous protease inhibitor of SEQ ID NO:4 (protein) TDTGDHHNQKTEWPELVGKSVEEAKKVILQDKSEAQIAVLPVGTIVTMEYRIDRVRLFVDSLDKIAQVPRVG	80	2
proteinaceous protease inhibitor of SEQ ID NO:28 (protein) TDTGDHHNQKTEWPELVGKSVEEAKKVILQDKSEAQIVVLPVGTIVTMEGRIDRVRLFVDSLDKIAQVPRVG	90	18
proteinaceous protease inhibitor of SEQ ID NO:29 (protein) TDTGDHHNQKTEWPELVGKSVEEAKKVILQDKSEAQIVVLPVGTIVTMEYRIDRVRLFVDSLDKIAQVPNVG	95	19
proteinaceous protease inhibitor of SEQ ID NO:30 (protein) MSSVEKKPEGVNTGAGDRHNLKTAWPELVGKSVEEAKKVILQDKSEAQIIVLPVGTIVTMEYRIDRVRLFVDKLDNIAQVPRVG	80	15
proteinaceous protease inhibitor of SEQ ID NO:31 (protein) MSSVEKKPEGVNTGAGDRHNLKTEWPELVGKSVEEAKKVILQDKSEAQIAVLPVGTIVTMEYRIDRVRLFVDKLDNIAQVPRVG	75	2
proteinaceous protease inhibitor of SEQ ID NO:32 (protein) MSSVEKKPEGVNTGAGDRHNLKTEWPELVGKSVEEAKKVILQDKSEAQIIVLPVGTIVTMEARIDRVRLFVDKLDNIAQVPRVG	73	15
proteinaceous protease inhibitor of SEQ ID NO:33 (protein) MSSVEKKPEGVNTGAGDRHNLKTEWPELVGKSVEEAKKVILQDKSEAQIIVLPVGTIVTMEYAIDRVRLFVDKLDNIAQVPRVG	18	1
proteinaceous protease inhibitor of SEQ ID NO:34 (protein) MSSVEKKPEGVNTGAGDRHNLKTEWPELVGKSVEEAKKVILQDKSEAQIIVLPVGTIVTMEYRADRVRLFVDKLDNIAQVPRVG	75	1
proteinaceous protease inhibitor of SEQ ID NO:35 (protein) MSSVEKKPEGVNTGAGDRHNLKTEWPELVGKSVEEAKKVILQDKSEAQIIVLPVGTIVTMEYRIARVRLFVDKLDNIAQVPRVG	80	2
proteinaceous protease inhibitor of SEQ ID NO:36 (protein) MSSVEKKPEGVNTGAGDRHNLKTEWPELVGKSVEEAKKVILQDKSEAQIIVLPVGTIVTMEYRIDRVRLFVDKLDNIAQVPAVG	81	1
